Assay results reported in US20230073007A1, “SWITCHING BINDER, PREPARATION METHOD THEREFOR, AND PHARMACEUTICAL COMPOSITION, ASSAY KIT, AND ANTIGEN AND ANTIBODY ASSAY METHOD, EACH USING SAME” (OPTOLANE TECHNOLOGIES INC., priority 2019, published 2023).

Biological target: anti-HRP antibody
Test: release of labelled peptide L1 from anti-HRP antibody in solution, HRP concentration varied; released peptide separated and read by fluorescence

Which EC50 (read off the curve) does the source give for “HRP (from UniProt P00433 31-338) (enzyme)” here?
The EC50 (read off the curve) was 900 nM.
